The record followed here is patent US20150353909.

Series [1] has as its target purified recombinant linear UB trimers.
In series [2] the target is K48-tetraubiquitin chains, P0CG48.
The target of series [3] is HA3-UBQ-GST [GST: P08515].
The target in another series is T1, HA3-RUB-GST, Q9SHE7.
T1 chain: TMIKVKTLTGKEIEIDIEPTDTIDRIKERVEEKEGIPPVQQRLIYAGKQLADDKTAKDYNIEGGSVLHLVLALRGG

Series [4] deals with purified recombinant linear UB dimers.
For series [5], the target named is purified recombinant linear UB tetramers.
Series [6] concerns the target K63-tetraubiquitin chains, P0CG48.

Chain of K48-tetraubiquitin chains, P0CG48 (P0CG48 whole entry, looked up): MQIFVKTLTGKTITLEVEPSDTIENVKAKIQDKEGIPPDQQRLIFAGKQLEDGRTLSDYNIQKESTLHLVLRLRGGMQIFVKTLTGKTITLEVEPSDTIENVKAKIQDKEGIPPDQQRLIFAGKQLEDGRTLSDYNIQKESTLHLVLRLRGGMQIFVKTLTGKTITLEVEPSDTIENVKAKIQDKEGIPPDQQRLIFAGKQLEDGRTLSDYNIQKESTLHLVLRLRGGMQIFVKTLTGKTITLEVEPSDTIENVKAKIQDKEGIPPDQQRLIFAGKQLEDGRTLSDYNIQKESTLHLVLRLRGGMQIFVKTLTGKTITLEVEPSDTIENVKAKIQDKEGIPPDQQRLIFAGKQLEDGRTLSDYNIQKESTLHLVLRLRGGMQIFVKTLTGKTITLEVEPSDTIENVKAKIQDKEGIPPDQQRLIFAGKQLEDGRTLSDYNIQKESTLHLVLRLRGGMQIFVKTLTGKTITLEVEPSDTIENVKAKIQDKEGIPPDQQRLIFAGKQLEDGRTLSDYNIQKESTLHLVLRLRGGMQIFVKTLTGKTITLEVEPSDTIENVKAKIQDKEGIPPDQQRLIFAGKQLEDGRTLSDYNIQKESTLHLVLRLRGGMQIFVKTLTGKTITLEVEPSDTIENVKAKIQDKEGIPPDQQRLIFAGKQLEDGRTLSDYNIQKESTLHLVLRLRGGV
Chain of K63-tetraubiquitin chains, P0CG48 (P0CG48 whole entry, looked up): as above

B1: His-tagged OTU9 (protein)
chain: MGYEPDPDALRWGLHDLEVCTLTNAGSCSSVTRYESGGGGTQGYVREGYNQPVTGYVDNDAVIAQFYQDELSRVARAEASGINSLSPTSVVAQDWPHPHQGQENQGEAIDITQESDILHNHNGNMEDKNVARIRFEGGQSSPSRDDDSVCSVEIEEESWSEVGKRLNQMIPIAHVPKINGELPSEDEQISDHERLFQRLQLYGLVENKIEGDGNCQFRSLSDQLYRSPEHHNFVREQVVNQLAYNREIYEGYVPMAYNDYLKAMKRNGEWGDHVTLQAAADLFGVRMFVITSFKDTCYIEILPHFQKSNRLICLSFWAEVHYNSIYPEGELPIPEGKKKKKYWVF
As for B1, the “in vitro deubiquitylation activity” value in series [1] is given as “-”; with HA3-SUMO-GST, P55852 it was “-”; in series [2], “++”; in series [3], “++”; with HA3-RUB-GST, Q9SHE7 it was “+”; in series [4] it was “-”. The results for the “in vitro deubiquitylation activity” value in series [5] and in series [6] were “-” and “++”, respectively.

B2: His-tagged OTU2 (protein)
chain: MEGIIVRRVIPSDNSCLFNAIGYVMDKDKNKAPELRQVIAAAVASNKEKYNEAFLGKLNEEYCAWILNPDKWGGAIELSILADYYGREIAAYDIQTSRCDLYGQTRNYDERVMLIYDGLHYDALALSPFEGAEEDFDMTIYPVGKDRSIGSIEGLALNLVKDQQRKRSYTDTANFTLRCGVCQIGVIGQKEAVEHAQATGHVNFQEYK
Turning to B2, the “in vitro deubiquitylation activity” value in series [1] is “-”; with HA3-SUMO-GST, P55852, “-”; in series [2], “+”; in series [3], “-”; with HA3-RUB-GST, Q9SHE7, “-”; in series [4] it was “-”. For the same protein, the “in vitro deubiquitylation activity” value in series [5] is on record as “-”; in series [6] it was “+”.

B3: GST-OTU10 (protein)
chain: MVSHEENTSIVEWFLGPHPYTYPPYGIEMIHEDDEVAVAHHHHHHQSGEYYREYEDHRSSDVDNDEIIARTLQDDFLQLEIAESNDYSHQNQQQQHQQEGYTNNYSNNNNGYAWNDQSPAVDYSSEWIGNDNDQDGRSDDSVNVFSCSSPSDTDEYVYSWESDQCDADGEFGRRLNQMVPIPYIPKINGEIPPEEEAVSDHERLRNRLEMFDFTEVKVPGDGNCQFRALADQLYKTADRHKHVRRQIVKQLKSRPDSYQGYVPMDFSDYLRKMSRSGEWGDHVTLQAAADAYRVKIVVLTSFKDTCYIEILPTSQESKGVIFLSFWAEVHYNAIYLNRDTSETELQRKRKWWRFGN
For B3, the “in vitro deubiquitylation activity” value in series [1] is “-”; in the series with HA3-SUMO-GST, P55852, “-”; in series [2], “++”; in series [3], “++”; in the series with HA3-RUB-GST, Q9SHE7 it was “+”; in series [4], “-”. Also, the entries for the “in vitro deubiquitylation activity” value in series [5] and in series [6] were “-” and “+++”, respectively.

B4: His-tagged OTU3 (protein)
chain: MELKSSSNNNILEQLRNGFARFELVSSPTASVSDSISSTSLPASFISTTKGNSYVFFARINSSMNRSPAAKKVEKYAVDRVKGDGRCLFRALVKGMAFNKGITLNPQRERDDADELRMAVKEVICNDPKEREKYKEALVAITVDESLKRFCQRIGRHDFWGGESELLVLSKLCKQPIIVYIPEHEHGRGGGYGPGFIPIQEYGSEFRGGWGKGKTNKNVVRLLYSGRNHYDLLR
On to B4, for which the “in vitro deubiquitylation activity” value in series [1] is “+”; in the series with HA3-SUMO-GST, P55852, “-”; in series [2], “++”; in series [3], “++”; with HA3-RUB-GST, Q9SHE7, “+”; in series [4], “-”. Further, the “in vitro deubiquitylation activity” value in series [5] is listed as “+”; in series [6], “+++”.

B5: His-tagged OTU7a (protein)
chain: MAKTKQQKSKPKKQPHQKQGKDCDLSQFRAQLDALGLKIIQVTADGNCFFRAIADQLEGNEDEHNKYRNMIVLYIVKNREMFEPFIEDDVPFEDYCKTMDDDGTWAGNMELQAASLVTRSNICIHRNMSPRWYIRNFEDTRTRMIHLSYHDGEHYNSVRSKEDACGGPARPVVIEADAKVSAASKQAKATESKSKNKADKCHVNAGAIKVVMSGSCCDNTEKAEQVLLQVNGDVDAAIEFLIADQGMESLTENDTETASASDTINPKHASDSPMENTEQAREELIEEESASGNNSETVQAKCTTQTDDKKIPRNKTCPCGSKKKYKSCCGTATGRSSVKLLVSQTMESKKGRKNLRRGTSNEVEANAPDVGALCI
B5: the “in vitro deubiquitylation activity” value was “-” in series [1]; “-” in the series with HA3-SUMO-GST, P55852; “+” in series [2]; “++” in series [3]; “+” with HA3-RUB-GST, Q9SHE7; “-” in series [4]. Also, the “in vitro deubiquitylation activity” value in series [5] is “-”; in series [6], “++”.

B6: OTU4c-NΔ (protein)
chain: SGLSRRHYTGFRVSVSNRPSSWHDKGLFGFAYTGVIVSLLVCYSSTSQSAYADSSRDKDANNVHHHSSDGKFHNGKRVYTDYSIIGIPGDGRCLFRSVAHGFCLRSGKLAPGEKMQRELADELRTRVADEFIQRRQETEWFVEGDFDTYVRQIRDPHVWGGEPELFMASHVLQMPITVYMKDDKAGGLISIAEYGQEYGKDDPIRVLYHGFGHYDALLLHESKASIPKSKL
On to B6, for which the catalytic activities entry is reported as “did not modify” in series [1]; “did not modify” in series [2]; “did not modify” in series [3]; “did not modify” in the series with HA3-RUB-GST, Q9SHE7; “did not modify” in series [4]; “did not modify” in series [5]. In series [6], the catalytic activities result was “did not modify”.

B7: GST-OTU4c (protein)
chain: MMICYSPITTCSRNAISIKRHLGSRLYGVVAHGSSKFSCYSLLSGLSRRHYTGFRVSVSNRPSSWHDKGLFGFAYTGVIVSLLVCYSSTSQSAYADSSRDKDANNVHHHSSDGKFHNGKRVYTDYSIIGIPGDGRCLFRSVAHGFCLRSGKLAPGEKMQRELADELRTRVADEFIQRRQETEWFVEGDFDTYVRQIRDPHVWGGEPELFMASHVLQMPITVYMKDDKAGGLISIAEYGQEYGKDDPIRVLYHGFGHYDALLLHESKASIPKSKL
Regarding B7, the “in vitro deubiquitylation activity” value in series [1] is recorded as “++”; with HA3-SUMO-GST, P55852, “-”; in series [2] it was “+++”; in series [3], “++”; with HA3-RUB-GST, Q9SHE7, “+”; in series [4], “-”. The results for the “in vitro deubiquitylation activity” value in series [5] and in series [6] were “++” and “+++”, respectively.
